According to the supplement of paper PMC9942255:

System: Bacillus subtilis DB104 (SP-AmyQ fusion secretion)
Assay: AmyQ secretion efficiency, weighted average sort bin (1 = best secretion, 10 = worst) (bin number (weighted average, 1-10)); higher = lower secretion efficiency
In short: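 B. subtilis DB104 library expressing mature AmyQ fused to designed signal peptides (amyE-integrated) was encapsulated at about 0.3 cells per ~65 nL alginate bead with fluorescein-starch, grown about 13 h at room temperature and nile red stained. Occupied beads were sorted by large-particle flow cytometry into 10 equally populated bins by green/red fluorescence ratio, and each bin's amplicons were Illumina-sequenced. Secretion score is the read-frequency-weighted average bin number, normalised to beads per bin, excluding low-abundance sequences.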

Sequence | AmyQ secretion efficiency
MKKAAAVLLSLGLVFGFSYGAGHVVPTAAEAKTK | 4.57
MKKAAAVLLSLGLVFGFSYGAGHVWEAKTK | 5.37
MKKAAAVLLSLGLVFGFSYGAGHVYEAKTK | 5.94
MKKAAAVLLSLGLVFIFVFAAVHVAEAKTK | 2.59
MKKAAAVLLSLGLVFKFSYGAGHVAEAKTK | 3.2
MKKAAAVLLSLGLVFKKRRRKKHVAEAKTK | 7.39
MKKAAAVLLSLGLVFVFVYGAGHVAEAKTK | 2.4
MKKAAAVLLSLGLVFVGFSYGAGHVAEAKTK | 1.71
MKKAFILSAAAAVGLFTFDDDQQASAKEL | 2.77
MKKAFILSAAAAVGLFTFEEDEDEASAKEL | 4.76
MKKAFILSAAAAVGLFTFGASAKEL | 5.43
MKKAFILSAAAAVGLFTFGGVQQASAADD | 3.55
MKKAFILSAAAAVGLFTFGGVQQASCKEL | 2.66
MKKAFILSAAAAVGLFTFGGVQQASEKEL | 6.66
MKKAFILSAAAAVGLFTFGGVQQASGKEL | 3.67
MKKAFILSAAAAVGLFTFGGVQQASMKEL | 5.04
MKKAFILSAAAAVGLFTFGGVQQASVKEL | 6.39
MKKAFILSAAAAVGLFTFGGVQQFSAKEL | 5.1
MKKAFILSAAAAVGLFTFGGVQQISAKEL | 3.06
MKKAFILSAAAAVGLFTFGGVQQLSAKEL | 3.38
MKKAFILSAAAAVGLFTFGGVQQMSAKEL | 2.71
MKKAFILSAAAAVGLFTFGGVQQSSAKEL | 4.21
MKKAFILSAAAAVGLFTFGGVQQVSAKEL | 3.11
MKKAFILSAAAAVGLFTFIAVSVASAKEL | 3.67
MKKAFILSAAAAVGLFTFKKKRRRASAKEL | 7.21
MKKAFILSAAAAVGLFTFKRRQQASAKEL | 7.06

Sequence | AmyQ secretion efficiency
MKKAFILSAAAAVGLFTFLILSFTGGVQQASAKEL | 3.78
MKKAFILSAAAAVGLFTFSIGGVQQASAKEL | 3.67
MKKAFILSAAAAVGLFTFTSVVGASAKEL | 4.32
MKKAFLVFLMVVLVLMVFLTVKQQESVAQAKQL | 3.05
MKKAFLVFLSVVLVTTVFLFVKQQESVAQAKQL | 2.31
MKKAFLVFLSVVLVTTVFLRKKRRKVAQAKQL | 6.27
MKKAFLVFLSVVLVTTVFLSKQQESVAQAKQL | 1.98
MKKAFLVFLSVVLVTTVFLTSSFLVKQQESVAQAKQL | 4.08
MKKAFLVFLSVVLVTTVFLVKQQEAQAKQL | 2.1
MKKAFLVFLSVVLVTTVFLVKQQESVAQAADD | 4.45
MKKAFLVFLSVVLVTTVFLVKQQESVAQGKQL | 3.58
MKKAFLVFLSVVLVTTVFLVKQQESVAQHKQL | 4.12
MKKAFLVFLSVVLVTTVFLVKQQESVAQKKQL | 4.43
MKKAFLVFLSVVLVTTVFLVKQQESVAQNKQL | 2.89
MKKAFLVFLSVVLVTTVFLVKQQESVAQPKQL | 4.94
MKKAFLVFLSVVLVTTVFLVKQQESVAQRKQL | 2.03
MKKAFLVFLSVVLVTTVFLVKQQESVAQTKQL | 2.14
MKKAFLVFLSVVLVTTVFLVKQQESVAQVKQL | 3.34
MKKAFLVFLSVVLVTTVFLVKQQESVCQAKQL | 4.58
MKKAFLVFLSVVLVTTVFLVKQQESVDQAKQL | 5.67
MKKAFLVFLSVVLVTTVFLVKQQESVHQAKQL | 6.34
MKKAFLVFLSVVLVTTVFLVKQQESVLQAKQL | 4.04
MKKAFLVFLSVVLVTTVFLVKQQESVPQAKQL | 7.73
MKKAFLVFLSVVLVTTVFLVKQQESVSGAQAKQL | 4.03
MKKAFLVFLSVVLVTTVFLVVSFESVAQAKQL | 2.33
MKKAFLVFLSVVVKQQESVAQAKQL | 7.51

Sequence | AmyQ secretion efficiency
MKKAKKKKLSLGLVFGFSYGAGHVAEAKTK | 7.52
MKKAKRKRLSVVLVTTVFLVKQQESVAQAKQL | 5.44
MKKAKRKRRKAAVGLFTFGGVQQASAKEL | 8.05
MKKAKRVFLSVVLVTTVFLVKQQESVAQAKQL | 3.28
MKKAKRVSALTPSTTLAITAKAKEL | 7.61
MKKALTLCPAIVGSLLFFTAPASAHVS | 2.41
MKKARRLSAAAAVGLFTFGGVQQASAKEL | 3.35
MKKARRRKAAAAVGLFTFGGVQQASAKEL | 6.73
MKKARRVLLSLGLVFGFSYGAGHVAEAKTK | 2.43
MKKAWFLPLVCVLLISGWLAPAASASAQTT | 2.33
MKKCKRKKKKIALILSLSTNAFAKNT | 6.9
MKKCKRRKTTIALILSLSTNAFAKNT | 7.38
MKKCLAVTLVFGSMSFPTLTNSGGFKE | 4.92
MKKCLLFLTTIALILISLSTNAFAKNT | 2.13
MKKCLLFLTTIALILKRRTNAFAKNT | 7.37
MKKCLLFLTTIALILRKRRKKAFAKNT | 7.29
MKKCLLFLTTIALILSGSTNAFAKNT | 1.7
MKKCLLFLTTIALILSLSTNAFAANE | 1.03
MKKCLLFLTTIALILSLSTNAFAANR | 1.56
MKKCLLFLTTIALILSLSTNAFAEDE | 4.16
MKKCLLFLTTIALILSLSTNAFYKNT | 8.02
MKKCLLFLTTIALILSLSTNCFAKNT | 1.59
MKKCLLFLTTIALILSLSTNGFAKNT | 6.12
MKKCLLFLTTIALILSLSTTAFAKNT | 1.16
MKKCRKSIKRFLVSLIIGTFVISVPFMANAQSD | 1.76
MKKEGKQYSRLCLSLSPLVSTNEVFAATT | 7.68

Sequence | AmyQ secretion efficiency
MKKELLASLVLCLSLDDDDETNEVFAATT | 5.98
MKKELLASLVLCLSLKRLVSTNKVFAATT | 7.51
MKKELLASLVLCLSLKRRKRTNRVFAATT | 7.57
MKKELLASLVLCLSLSPLVSTNEVFAAEE | 2.07
MKKELLASLVLCLSLSPLVSTNEVFAATT | 2.73
MKKELRRKKKRCLSLSPLVSTNEVFAATT | 6.21
MKKERGGTYVLCLSLSPLVSTNEVFAATT | 8.09
MKKFFGPIILAFILFAGAIAIPS | 6.93
MKKFIFNMFIGLLFMLCLAALFTIGFPAQQADAAEA | 2.9
MKKFIVFICFFVLFSVHPIAAAAADS | 4.38
MKKFLLVSFVLFFALSTGITGVQAAPA | 2.2
MKKFLVALTMCGGLFVTPAKAVKT | 3.65
MKKFLVSLIIGTFVISVPFMANAQSD | 1.69
MKKFMNFSSVMLATALFLGLTPAGANAADL | 4.23
MKKFVAVAALSTTAFGAHASAKEI | 6.74
MKKGIIRFLLVSFVLFFALDEDITGVQAAPA | 3.78
MKKGIIRFLLVSFVLFFALFAFIAFGGGTTVQAAPA | 1.86
MKKGIIRFLLVSFVLFFALKKRITGVQAAPA | 6.43
MKKGIIRFLLVSFVLFFALLAFVVISFFSTGITGVQAAPA | 2.07
MKKGIIRFLLVSFVLFFALRRKKKRVQAAPA | 5.81
MKKGIIRFLLVSFVLFFALSSTGITGVQAAPA | 1.83
MKKGIIRFLLVSFVLFFALSTGITGAQAAPA | 2.21
MKKGIIRFLLVSFVLFFALSTGITGFQAAPA | 5.1
MKKGIIRFLLVSFVLFFALSTGITGKQAAPA | 5.05
MKKGIIRFLLVSFVLFFALSTGITGSQAAPA | 4.62
MKKGIIRFLLVSFVLFFALSTGITGVQAAPD | 2.73

Sequence | AmyQ secretion efficiency
MKKGIIRFLLVSFVLFFALSTGITGVQAAPK | 1.02
MKKGIIRFLLVSFVLFFALSTGITGVQAARK | 2.85
MKKGIIRFLLVSFVLFFALSTGITGVQCAPA | 6.36
MKKGIIRFLLVSFVLFFALSTGITGVQDAPA | 6.75
MKKGIIRFLLVSFVLFFALSTGITGVQFAPA | 7.18
MKKGIIRFLLVSFVLFFALSTGITGVQGAPA | 4.19
MKKGIIRFLLVSFVLFFALSTGITGVQHAPA | 5.62
MKKGIIRFLLVSFVLFFALSTGITGVQLAPA | 5.59
MKKGIIRFLLVSFVLFFALSTGITGVQRAPA | 4.88
MKKGIIRFLLVSFVLFFALSTGITGVQSAPA | 4.46
MKKGIIRFLLVSFVLFFALSTGITGVQVAPA | 6.17
MKKGIIRFLLVSFVLFFALSTGITGVQYAPA | 4.56
MKKGIIRFLLVSFVLFFALSTGSTGVQAAPA | 1.88
MKKGIIRFLLVSFVLFSTGITGVQAAPA | 2.37
MKKGIIRFRRKKFVLFFALSTGITGVQAAPA | 4.49
MKKGIIRFRRVSFVLFFALSTGITGVQAAPA | 2.36
MKKGIIRKTLVSFVLFFALSTGITGVQAAPA | 2
MKKGIIRQSQSQTGLFFALSTGITGVQAAPA | 7.14
MKKGIIRTFFLLVSFVLFFALSTGITGVQAAPA | 2.73
MKKGIIRTGRQSFVLFFALSTGITGVQAAPA | 5.13
MKKGIRFLLVSFVLFFALSTGITGVQAAPA | 2.35
MKKGKRTRTIGLLTVSIASPSFAAEK | 6.26
MKKGQYRRGSLGLVFGFSYGAGHVAEAKTK | 7.9
